Test results from patent publication US20200270125A1 (OMEROS, published 2020).

T1: recombinant full-length mouse MASP-3 (mouse)
T1 construct: Entry is with leader; also called mouse full length MASP-3
T1 chain: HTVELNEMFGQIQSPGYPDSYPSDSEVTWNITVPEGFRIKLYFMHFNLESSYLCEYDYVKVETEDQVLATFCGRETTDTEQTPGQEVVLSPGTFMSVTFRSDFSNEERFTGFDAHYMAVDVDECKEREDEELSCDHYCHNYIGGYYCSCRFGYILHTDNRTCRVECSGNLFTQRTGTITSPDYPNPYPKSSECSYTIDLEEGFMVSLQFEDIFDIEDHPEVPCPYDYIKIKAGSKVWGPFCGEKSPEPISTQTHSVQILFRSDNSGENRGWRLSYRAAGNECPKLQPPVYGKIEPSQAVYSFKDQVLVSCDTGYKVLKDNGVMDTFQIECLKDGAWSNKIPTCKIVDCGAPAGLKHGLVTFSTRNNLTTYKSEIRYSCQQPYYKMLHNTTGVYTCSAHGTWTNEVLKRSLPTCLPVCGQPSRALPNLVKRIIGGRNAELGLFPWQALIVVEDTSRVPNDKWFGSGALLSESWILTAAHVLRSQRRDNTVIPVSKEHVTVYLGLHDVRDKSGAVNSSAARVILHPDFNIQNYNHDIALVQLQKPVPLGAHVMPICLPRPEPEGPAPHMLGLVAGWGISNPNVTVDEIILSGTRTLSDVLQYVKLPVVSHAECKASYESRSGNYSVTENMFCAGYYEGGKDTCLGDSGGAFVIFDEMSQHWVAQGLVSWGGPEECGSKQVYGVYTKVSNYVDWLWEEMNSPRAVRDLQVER

T2: human MASP-3 (construct not stated) (human)
T2 construct: also called MASP-3 antigen
T2 chain: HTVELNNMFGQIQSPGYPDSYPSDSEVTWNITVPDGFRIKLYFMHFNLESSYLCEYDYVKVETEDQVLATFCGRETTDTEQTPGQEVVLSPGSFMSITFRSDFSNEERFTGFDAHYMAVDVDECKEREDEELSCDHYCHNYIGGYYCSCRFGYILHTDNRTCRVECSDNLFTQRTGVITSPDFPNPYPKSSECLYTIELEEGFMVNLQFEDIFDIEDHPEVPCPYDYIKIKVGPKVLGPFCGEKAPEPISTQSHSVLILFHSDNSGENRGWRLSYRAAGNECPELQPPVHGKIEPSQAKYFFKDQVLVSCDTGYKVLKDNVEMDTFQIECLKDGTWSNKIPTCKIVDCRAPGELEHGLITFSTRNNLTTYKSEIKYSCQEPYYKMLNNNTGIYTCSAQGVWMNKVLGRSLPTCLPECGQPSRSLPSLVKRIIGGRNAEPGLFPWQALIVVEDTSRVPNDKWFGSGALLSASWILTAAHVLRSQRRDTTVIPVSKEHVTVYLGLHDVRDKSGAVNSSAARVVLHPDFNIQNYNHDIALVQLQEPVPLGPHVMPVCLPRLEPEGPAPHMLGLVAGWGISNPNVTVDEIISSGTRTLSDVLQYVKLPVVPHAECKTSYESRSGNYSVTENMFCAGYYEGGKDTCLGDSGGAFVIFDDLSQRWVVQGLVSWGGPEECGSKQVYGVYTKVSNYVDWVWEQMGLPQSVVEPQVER

T3: recombinant human MASP-1A (S646A, CCP1-CCP2-SP fragment) (human, UniProt P48740 298-699, limits assumed)
T3 chain: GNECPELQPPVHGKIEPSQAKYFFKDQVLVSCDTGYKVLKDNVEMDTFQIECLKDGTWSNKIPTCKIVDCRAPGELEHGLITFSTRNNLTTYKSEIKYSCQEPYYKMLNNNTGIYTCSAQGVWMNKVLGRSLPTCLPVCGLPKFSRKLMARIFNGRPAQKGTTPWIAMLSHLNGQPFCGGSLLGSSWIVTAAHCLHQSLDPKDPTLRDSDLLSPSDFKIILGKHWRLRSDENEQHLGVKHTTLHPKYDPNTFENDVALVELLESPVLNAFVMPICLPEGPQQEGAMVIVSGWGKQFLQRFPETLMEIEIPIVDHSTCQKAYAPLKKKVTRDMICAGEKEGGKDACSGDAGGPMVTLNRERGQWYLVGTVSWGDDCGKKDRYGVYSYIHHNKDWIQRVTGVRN

T4: human MASP-3 CCP1-CCP2-SP fragment (human)
T4 construct: limits of the assay construct are not restated; also called rMASP-3 (CCP1-CCP2-SP)
T4 chain: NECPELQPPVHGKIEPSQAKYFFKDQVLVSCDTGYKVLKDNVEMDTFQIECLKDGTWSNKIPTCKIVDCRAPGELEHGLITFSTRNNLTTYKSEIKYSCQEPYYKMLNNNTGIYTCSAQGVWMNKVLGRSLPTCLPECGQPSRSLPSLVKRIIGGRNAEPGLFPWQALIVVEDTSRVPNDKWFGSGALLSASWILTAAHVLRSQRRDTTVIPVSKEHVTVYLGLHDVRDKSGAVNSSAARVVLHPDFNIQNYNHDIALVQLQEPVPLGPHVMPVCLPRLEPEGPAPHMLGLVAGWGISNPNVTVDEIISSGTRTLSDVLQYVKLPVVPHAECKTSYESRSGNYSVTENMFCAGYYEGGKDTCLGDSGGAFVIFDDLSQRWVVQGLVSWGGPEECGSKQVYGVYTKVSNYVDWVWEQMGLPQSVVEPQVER


How the values were obtained:
[1] = biological target: T5, recombinant human MASP-2 (CCP1-CCP2-SP fragment) (human, UniProt O00187 298-686, limits assumed); test: ELISA: recombinant MASP-2 (CCP1-CCP2-SP) coated directly on the plate, A450
T5 construct: domain: CCP1-CCP2-SP fragment
Protocol: (§1) The plate was then washed (PBS-T, 0.05%) and the candidate MASP-3 antibodies were added followed by incubation for one hour at room temperature. The plate was washed (PBS-T, 0.05%) and a detection antibody was added (mouse anti-human kappa-HRP, SouthernBiotech #9230-05) for one hour at room temperature. After another wash (PBS-T, 0.05%) the plate was developed (5 minutes) with OPT EIA TMB (BD Biosciences #555214). Absorbance reading at A450 was measured using the Spectramax M5e plate reader.

[2] = biological target: T1, recombinant full-length mouse MASP-3; test: sandwich ELISA, full-length mouse MASP-3 captured by αM3-259
Protocol: as §1

[3] = biological target: T2, human MASP-3 (construct not stated); test: not described at this place
[4] = biological target: T3, recombinant human MASP-1A (S646A, …); test: ELISA: recombinant MASP-1A (S646A, CCP1-CCP2-SP) coated directly on the plate, A450
Protocol: as §1

[5] = biological target: T4, human MASP-3 CCP1-CCP2-SP fragment; test: sandwich ELISA, MASP-3 CCP1-CCP2-SP captured by αM3-259
Protocol: as §1

[6] = biological target: T2, human MASP-3 (construct not stated); test: ELISA, monovalent Fab

T5 sequence (O00187 298-686 limits assumed): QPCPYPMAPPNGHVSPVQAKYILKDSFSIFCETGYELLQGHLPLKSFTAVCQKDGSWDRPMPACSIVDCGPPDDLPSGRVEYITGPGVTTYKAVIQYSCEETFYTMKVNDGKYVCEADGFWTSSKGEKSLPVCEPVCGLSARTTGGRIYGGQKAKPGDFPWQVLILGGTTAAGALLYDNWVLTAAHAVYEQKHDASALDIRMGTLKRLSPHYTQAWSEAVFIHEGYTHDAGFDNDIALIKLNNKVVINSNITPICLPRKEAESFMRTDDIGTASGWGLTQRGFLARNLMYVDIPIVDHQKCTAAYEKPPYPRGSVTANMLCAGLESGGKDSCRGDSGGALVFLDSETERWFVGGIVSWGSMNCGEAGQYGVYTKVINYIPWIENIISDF

Row | Binder | EC50 [2] [nM] | binding affinity [3] [pM] | EC50 [5] [nM] | EC50 [6] [nM] | binding result [1] | binding result [4]
1 | h4D5-19-1-NA Fab (VH-19 and VL-1-NA) (Fab, V domains shown, Humanized monovalent Fab; also called 4D5-NA mutant) VH: QVQLVQSGAEVKKPGASVKVSCKASGYTFTTDDINWVRQAPGQGLEWIGWIYPRDDRTKYNDKFKDRATLTVDTSSNTAYMELSSLRSEDTAVYYCSSLEDTYWGQGTLVTVSS VL: DIVMTQSPDSLAVSLGERATINCKSSQSLLASRTRKNYLAWYQQKPGQPPKLLIYWASTRESGVPDRFSGSGSGTDFTLTISSLQAEDVAVYYCKQSYNLYTFGQGTKVEIKR |  |  |  | 0.122 |  | 
2 | h4D5-19-1-NQ Fab (VH-19 and VL-1-NQ) (Fab, V domains shown, also called 4D5-NQ mutant) VH: QVQLVQSGAEVKKPGASVKVSCKASGYTFTTDDINWVRQAPGQGLEWIGWIYPRDDRTKYNDKFKDRATLTVDTSSNTAYMELSSLRSEDTAVYYCSSLEDTYWGQGTLVTVSS VL: DIVMTQSPDSLAVSLGERATINCKSSQSLLQSRTRKNYLAWYQQKPGQPPKLLIYWASTRESGVPDRFSGSGSGTDFTLTISSLQAEDVAVYYCKQSYNLYTFGQGTKVEIKR |  |  |  | 0.732 |  | 
3 | h4D5-19-1-ST Fab (VH-19 and VL-1-ST) (Fab, V domains shown, also called 4D5-ST mutant) VH: QVQLVQSGAEVKKPGASVKVSCKASGYTFTTDDINWVRQAPGQGLEWIGWIYPRDDRTKYNDKFKDRATLTVDTSSNTAYMELSSLRSEDTAVYYCSSLEDTYWGQGTLVTVSS VL: DIVMTQSPDSLAVSLGERATINCKSSQSLLNTRTRKNYLAWYQQKPGQPPKLLIYWASTRESGVPDRFSGSGSGTDFTLTISSLQAEDVAVYYCKQSYNLYTFGQGTKVEIKR |  |  |  | 0.151 |  | 
4 | h10D12-45-21-DA Fab (VH-45 and VL-21-DA) (Fab, V domains shown, also called 10D12-DA mutant) VH: QIQLVQSGSELKKPGASVKVSCKASGYIFTSYGMSWVRQAPGKGLKWMGWINTYSGVPTYADDFKGRFVFSLDTSVRTPYLQISSLKAEDTAVYFCARGGEAMDYWGQGTLVTVSS VL: DVLMTQTPLSLSVTPGQPASISCKSSQSLLDSAGKTYLNWLLQRPGQSPKRLIYLVSKLDSGVPDRFSGSGSGTDFTLKISRVEAEDVGVYYCWQGTHFPWTFGQGTKVEIKR |  |  |  | 0.294 |  | 
5 | MASP-3 mAb 1E7 (mouse-human chimeric IgG4) (antibody, V domains shown) VH: QVQLKQSGPELARPWASVKISCQAFYTFSRRVHFAIRDTNYWMQWVKQRPGQGLEWIGAIYPGNGDTSYNQKFKGKATLTADKSSSTAYMQLSSLTSEDSAVYYCASGSHYFDYWGQGTTLTVSS VL: DIQLTQSPAILSVSPGERVSFSCRASQSIGTSIHWYQQRTNGSPRLLIKYASESISGIPSRFSGSGSGTDFTLSINSVESEDIADYYCQQSNSWPYTFGGGTKLEIKR | 117 | ≤ 500 | 0.112 |  |  | 

Now from value to binder, other results behind:

Row | EC50 [2] [nM] | binding affinity [3] [pM] | EC50 [5] [nM] | EC50 [6] [nM] | Binder | binding result [1] | binding result [4]
6 | 0.064 | ≤ 500 | 0.069 |  | MASP-3 mAb 49C11 (mouse-human chimeric IgG4) (antibody, V domains shown) VH: EVQLQQSGPVLVKPGASGKMSCKASGYKFTDYYMIWVKQSHGKSLEWIGVIKIYNGGTSYNQKFKGKATLTVDKSSSTAYMELNSLTSEDSAVYYCARGPSLYDYDPYWYFDVWGTGTTVTVSS VL: DVLMTQTPLSLPVSLGDQASFSCRSSQSLIHSNGNTYLHWYLQKPGQSPKLLIYKVSNRFSGVPDRFSGSGSGTDFTLKISRVEAEDLGVYFCSQSTHVPWTFGGGTKLEIKR | no binding (tested: about 20 nM (log10 about 1.3)) | no binding (tested: about 20 nM (log10 about 1.3))
7 | 0.209 | ≤ 500 | 0.091 |  | MASP-3 mAb 35C1 (mouse-human chimeric IgG4) (antibody, V domains shown) VH: QIQLVQSGPELKTPGETVKISCKASGYIFTSYGITWVKQAPGKGLKWMGWINTYSGVPTYADDFKGRFAFSLETSASTAYLQINNLKNEDTTTYFCTRGGDALDYWGQGTSVTVSS VL: not shown | no binding (tested: about 20 nM (log10 about 1.3)) | no binding (tested: about 20 nM (log10 about 1.3))
8 | 0.066 | ≤ 500 | 0.06 |  | MASP-3 mAb 11B6 (mouse-human chimeric IgG4) (antibody, V domains shown) VH: QVQLKQSGAELVKPGASVKMSCKASGYTFTTYPIEWMKQNHGKSLEWIGNFHPYNGDSKYNEKFKGKATLTVEKSSSTVYLELSRLPSADSAIYYCARRHYAASPWFAHWGQGTLVTVSS VL: DIVMTQSQKFMSTSVGDRVNVTCKASQNVGPTVAWYQQKPGQSPKALIYSASYRYSGVPDRFTGSGSGTDFTLTISNVHSEDLAEYFCQQYNSYPFTFGSGTKLEIKR | no binding (tested: about 20 nM (log10 about 1.3)) | no binding (tested: about 20 nM (log10 about 1.3))
9 | 1.1 | ≤ 500 | 0.059 |  | MASP-3 mAb 1B11 (mouse-human chimeric IgG4) (antibody, V domains shown) VH: QVQLKQSGAELVRPGASVKLSCKASGYTFTDYYINWVKQRPGQGLEWIARIYPGSGNTYYNEKFKGKATLTAEKSSSTAYMQLSSLTSEDSAVYFCARNYYISSPWFAYWGQGTLVTVSS VL: DIVMTQSQKFMSTSVGDRVSVTCKASQNVGPNVAWYQQKPGQSPKALIYSASYRYSGVPDRFTGSGSGTDFTLTISNVQSEDLADYFCQQYNRYPLTFGAGTKLELKR | no binding (tested: about 20 nM (log10 about 1.3)) | no binding (tested: about 20 nM (log10 about 1.3))
10 | 0.092 | ≤ 500 | 0.074 |  | MASP-3 mAb 15D9 (mouse-human chimeric IgG4) (antibody, V domains shown) VH: QVQLKQSGTELMKPGASVNLSCKASGYTFTAYWIEWVKQRPGHGLEWIGEILPGSGTTNYNENFKDRATFTADTSSNTAYMQLSSLTSEDSAIYYCARSYYYASRWFAFWGQGTLVTVSS VL: DIVMTQSQKFMSTSIGDRVSVTCRASQNVGPNLAWYQQKPGQSPKALIYSASYRFSGVPDRFTGSGSGTDFTLTISNVQSEDLAEYFCQQYNRYPFTFGSGTKLEIKR | no binding (tested: about 20 nM (log10 about 1.3)) | no binding (tested: about 20 nM (log10 about 1.3))
